Source: publication PMC11661447

Molecular target: RNA-dependent RNA polymerase (RdRp) of HuNoV GII.4 Sydney strain (human norovirus GII.4 Sydney strain)
Assay: SEC + AUC; purified RdRp alone, physiologically relevant conditions (pH 7.5); sedimentation velocity of 10 μM RdRp at 40,000 rpm, 22°C; monomer, dimers and higher-order oligomers

For “RNA-dependent RNA polymerase (RdRp) of HuNoV GII.4 Sydney strain (enzyme)”, which percent as dimers is on record?
Its percent as dimers is 15%.

And the percent as monomer?
The percent as monomer was 75%.

What about the stoichiometry N of the same substance?
The stoichiometry N was 2.
